# Measurements taken from patent US20060252692A1, “Inhibitors for use in hemostasis” (ZymoGenetics, Inc., priority 2002, published 2006).
# How the values were obtained:
# A7-BaF-3 cells = test: Proliferation assay on zsig37-coated plates, A7-BaF-3; format: cell-based; settings: 5,000 cells/well
# Experimental: (§1) A second assay was performed with TF-1, DA-1, an IL-3 dependent cell line derived from the lymph node of a mouse with a B-cell lymphoma by outgrowth in IL-3 media, pre-B (p53−/− mouse marrow cells, IL-7 dependent, B220+, Thy1 low, Sca-1+), and A7BaF-3 cell lines as described above at 5,000 cells/well. BHK cells were also plated at 500 cells/well.
# [1] = system: serotonin-contracted rat aortic sections; test: Relaxation of serotonin-induced rat aortic ring contractions; set-up: species or system Sprague-Dawley rats
# Experimental: Male, Sprague-Dawley rats, approximately 3 months of age, were lightly anesthetized with CO2 and then decapitated. The thoracic aorta was then rapidly removed and placed in a modified Kreb's-Henseleit buffer (NaCl, 118.2 mM; KCl, 4.6 mM; CaCl2, 2.5 mM; MgSO4, 1.2 mM; NaHCO3, 24.8 mM; KH2PO4, 1.2 mM; and glucose, 10.0 mM). From each rat, four 2-3 mm aortic ring sections were cut after discarding the rough end of the aorta. In some experiments the endothelium was denuded, prior to cutting ring sections, by rubbing the lumen of the aorta along a 21 gauge needle. Denudation of the endothelium was verified by the addition of the acetylcholine analogue, carbachol, prior to determining zsig37 concentration-dependent responses.
# The rings were fixed and connected to force displacement transducers in oxygenated (95% O2, 5% CO2), jacketed, glass organ baths kept at 30° C. in modified Kreb's-Henseleit buffer, pH 7.4. Resting tension was set at 1 gm, and continually re-adjusted to 1 gm over a one-hour incubation period. Fresh oxygenated modified Kreb's-Henseleit buffer was added to the baths every fifteen minutes during the resting incubation period. At the end of the one-hour incubation, the ring sections were contracted by the addition of 10 μM serotonin. After maximum contraction had been reached, approximately 15-20 minutes after the addition of the serotonin, cumulative concentration response curves for zsig37 were constructed. Zsig37 was added to 5 ml baths in volumes from 5 up to 150 μls, for final concentrations ranging from 1 ng/ml up to 40 μg/ml. Viability of the ring sections was verified at the end of the concentration response by the addition of forskolin (2.5 μM or 25 μM) or nitroglycerin (22 μM).
# platelets in whole blood = test: Whole blood platelet activation (Lumi-Aggregometer); format: cell-based, human
# Experimental: Blood was drawn from healthy volunteers into tubes containing sodium citrate, maintained at room temperature, and used within four hours of drawing. Whole blood was analyzed for platelet activation using a Chrono-Log 560A Whole Blood Lumi-Aggregometer (Chrono-Log Corp.; Haverton, Pa.) according to manufacturer's instructions. For each test point, 500 μl of blood were added to a reaction tube containing a stir bar and 500 μl of isotonic saline containing zsig37 at concentrations from 0 to 20 μg/ml. The mixture was incubated for four minutes followed by platelet activation initiated by the addition of 5 μl of 1 mg/ml cross-linked collagen (Chrono-Log Corp.) to the blood/zsig37 mixture. Inhibition of activation by ADP (final concentration 10 μM), and thrombin (final concentration lU/ml) were tested in a similar way.
# [2] = system: iliac artery crush injury/stenosis; test: Rabbit iliac artery crush injury/stenosis model; format: in vivo, New Zealand White rabbits
# Experimental: The effect of zsig37 on blood flow dynamics following vascular injury in a rabbit iliac artery crush injury/stenosis model was also evaluated. Young adult male New Zealand White rabbits were anesthetized as described above. Via an abdominal incision, the aorto-iliac bifurcation was exposed and each iliac freed of surrounding tissues and the main branches ligated. Each iliac was fitted with an ultrasound flow probe to monitor blood flow through the vessel. Based on blood flow data, one iliac was selected to be used for the injury and the other was catheterized for delivery of the test sample. Rabbits were divided into dose groups of 6 animals/group. Test sample doses containing zsig37 increased in half-log increments from 3-1000 μg/kg over the selected infusion period. The test samples infusion was initiated followed by creation of a critical stenosis that reduced blood flow through the vessel by approximately 50%. After creation of the stenosis and a period of blood flow stabilization, the vessel was injured by crushing the vessel between the jaws of a smooth needle holder. The infusion was continued post-injury for a set period of time, 10-20 minutes. Blood flow through the injured vessel was monitored for 60 minutes post-injury. The animals were euthanized at he conclusion of the study period. […]
# DA-1 cells = test: Proliferation assay on zsig37-coated plates, DA-1; format: cell-based, mouse; settings: 5,000 cells/well
# Experimental: as §1
# [3] = system: platelet rich thrombus formation induced by vascular injury; test: Platelet rich thrombus formation induced by vascular injury (Folts Model); format: in vivo, cynomolgus monkeys; settings: remained open
# Experimental: The effect of zsig37 on platelet rich thrombus formation induced by vascular injury (Folts Model) was also tested with cynomolgus monkeys. In the absence of treatment, blood flow in the vessels decreased to zero flow, indicating an occlusion of the artery. In contrast, cynomolgus monkeys that received the vascular injury and were treated with 1.0 mg/kg zsig37 had vessels that were fully patent by 20 minutes following treatment and remained open. When cynomolgus monkeys received the vascular injury and were treated with 0.5 mg/kg zsig37, their vessels were fully patent by 30 minutes following treatment and then remained open.
# [4] = system: RAW 264.7 (ATCC No. CRL-2278); test: Binding of zsig37 to RAW 264.7 monocyte/macrophage line; settings: mouse monocyte/macrophage line
# Source text: This could potentially result in zsig37 involvement in monocyte phagocytosis, microbial killing, and cellular cytotoxicity. Following the two days in culture, there are macrophages present in the culture and zsig37 may be binding preferentially to this subset of cells. Zsig37 also bound to a mouse monocyte/macrophage line, RAW 264.7 (ATCC No. CRL-2278), indicating macrophage specificity.
molecule,measurement,setting,value
"zsig37: adipocyte complement related protein homolog, polypeptide of SEQ ID NO:2, inhibits collagen-mediated platelet activation and the complement pathway (protein, listed as Homo sapiens) MGSRGQGLLLAYCLLLAFASGLVLSRVPHVQGEQQEWEGTEELPSPPDHAERAEEQHEKYRPSQDQGLPASRCLRCCDPGTSMYPATAVPQINITILKGEKGDRGDRGLQGKYGKTGSAGARGHTGPKGQKGSMGAPGERCKSHYAAFSVGRKKPMHSNHYYQTVIFDTEFVNLYDHFNMFTGKFYCYVPGLYFFSLNVHTWNQKETYLHIMKNEEEVVILFAQVGDRSIMQSQSLMLELREQDQVWVRLYKGERENAIFSEELDTYITFSGYLVKHATEP",growth of A7-BaF-3 cells,A7-BaF-3 cells,enhanced the growth
same,time to plateau of relaxation response after addition,[1],3 to 5 min
same,time to relaxation after addition of each concentration,[1],30 to 60 s
same,concentration at which relaxation was first observed,[1]; 10 μM serotonin,above 100 ng/ml
same,vasorelaxation of serotonin-contracted aortic sections,"[1]; 10 μM serotonin, with and without an intact endothelium, 1 ng/ml up to 40 μg/ml",concentration-dependent vasorelaxation
same,effect on platelet activation stimulated by ADP,platelets in whole blood; ADP final concentration 10 μM,no effect
same,inhibition of collagen-mediated platelet activation,"platelets in whole blood; cross-linked collagen, zsig37 0 to 20 μg/ml",dose dependent relationship between 5 and 20 μg/ml
same,effect on platelet activation stimulated by thrombin,platelets in whole blood; thrombin,no effect
same,patency time,"[2]; 3-1000 μg/kg infusion, 60 minute period",tendency for zsig37 to promote increased patency time with increased dose up to 300 μg/kg
same,thrombolytic activity,"[2]; study with zsig37 hexamer, flow starting from occlusion",possesses thrombolytic activity
same,growth of DA-1 cells,DA-1 cells,slightly inhibited growth
same,time to fully patent vessels following treatment,[3]; 0.5 mg/kg,≤ 30 min
same,time to fully patent vessels following treatment,[3]; 1.0 mg/kg,≤ 20 min
same,binding to RAW 264.7,[4],bound
